Source: US20190153112A1 (IMMUTEP S A S, published 2019)

Columns and labels:
[1] = biological target: human LAG-3 protein (Lymphocyte activation gene-3) on the cell surface (human) (UniProt P18627); assay: flow cytometry on CD8+ cells of SEB-stimulated PBMCs (Donor 1); antibody 7 ng/ml
[2] = biological target: human LAG-3 protein (Lymphocyte activation gene-3) on the cell surface (human) (UniProt P18627); assay: flow cytometry on CD8+ cells of SEB-stimulated PBMCs (Donor 1); antibody 2326 ng/ml
[3] = biological target: IMP321 (recombinant soluble human LAG-3Ig fusion protein) (human) (UniProt P18627); assay: FACS, LAG-3Ig-Alexa 488 (1 µg/ml) pre-incubated with antibody 990 ng/ml, then bound to Raji (MHC class II+) cells
Sequence of IMP321 (recombinant soluble human LAG-3Ig fusion protein) (human) (P18627 23-450): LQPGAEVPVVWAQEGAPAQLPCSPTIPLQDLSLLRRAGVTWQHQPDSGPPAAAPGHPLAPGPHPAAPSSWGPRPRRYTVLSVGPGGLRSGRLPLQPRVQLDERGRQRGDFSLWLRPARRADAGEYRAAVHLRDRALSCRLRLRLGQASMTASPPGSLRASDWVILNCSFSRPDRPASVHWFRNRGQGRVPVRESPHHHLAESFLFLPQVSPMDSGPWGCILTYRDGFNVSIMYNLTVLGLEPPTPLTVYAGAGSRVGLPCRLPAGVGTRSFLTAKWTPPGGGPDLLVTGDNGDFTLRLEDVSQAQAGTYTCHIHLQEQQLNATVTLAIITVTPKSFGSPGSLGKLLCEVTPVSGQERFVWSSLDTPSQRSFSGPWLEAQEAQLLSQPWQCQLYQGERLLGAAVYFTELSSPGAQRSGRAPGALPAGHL

[4] = biological target: human LAG-3 protein (Lymphocyte activation gene-3) on the cell surface (human) (UniProt P18627); assay: flow cytometry on LAG-3-transfected CHO cells; antibody 20 ng/ml
[5] = biological target: human LAG-3 protein (Lymphocyte activation gene-3) on the cell surface (human) (UniProt P18627); assay: flow cytometry on CD4+ cells of SEB-stimulated PBMCs (Donor 1); antibody 0.4 ng/ml
[6] = biological target: human LAG-3 protein (Lymphocyte activation gene-3) on the cell surface (human) (UniProt P18627); assay: flow cytometry on CD8+ cells of SEB-stimulated PBMCs, mean of three donors
[7] = biological target: human LAG-3 protein (Lymphocyte activation gene-3) on the cell surface (human) (UniProt P18627); assay: flow cytometry on CD8+ cells of SEB-stimulated PBMCs (Donor 1); antibody 10000 ng/ml
[8] = biological target: human LAG-3 protein (Lymphocyte activation gene-3) on the cell surface (human) (UniProt P18627); assay: flow cytometry on LAG-3-transfected CHO cells; antibody 6 ng/ml
[9] = biological target: human LAG-3 protein (Lymphocyte activation gene-3) on the cell surface (human) (UniProt P18627); assay: flow cytometry on LAG-3-transfected CHO cells; antibody 0.4 ng/ml
[10] = biological target: IMP321 (recombinant soluble human LAG-3Ig fusion protein) (human) (UniProt P18627); assay: Biacore, 17B4 antibody on the chip and LAG-3Ig in the running buffer
[11] = biological target: human LAG-3 protein (Lymphocyte activation gene-3) on the cell surface (human) (UniProt P18627); assay: flow cytometry on LAG-3-expressing CHO cells, from Table 12
[12] = biological target: human LAG-3 protein (Lymphocyte activation gene-3) on the cell surface (human) (UniProt P18627); assay: flow cytometry on CD4+ cells of SEB-stimulated PBMCs (Donor 1); antibody 10000 ng/ml
[13] = biological target: human LAG-3 protein (Lymphocyte activation gene-3) on the cell surface (human) (UniProt P18627); assay: flow cytometry on CD8+ cells of SEB-stimulated PBMCs (Donor 1); antibody 29 ng/ml
[14] = biological target: human LAG-3 protein (Lymphocyte activation gene-3) on the cell surface (human) (UniProt P18627); assay: flow cytometry on CD4+ cells of SEB-stimulated PBMCs (Donor 1); antibody 2326 ng/ml
[15] = biological target: human LAG-3 protein (Lymphocyte activation gene-3) on the cell surface (human) (UniProt P18627); assay: flow cytometry on CD8+ cells of SEB-stimulated PBMCs (Donor 1), from Table 13
[16] = biological target: human LAG-3 protein (Lymphocyte activation gene-3) on the cell surface (human) (UniProt P18627); assay: flow cytometry on LAG-3-expressing CHO cells, mean of four independent experiments
[17] = biological target: human LAG-3 protein (Lymphocyte activation gene-3) on the cell surface (human) (UniProt P18627); assay: flow cytometry on LAG-3-transfected CHO cells; antibody 500 ng/ml
[18] = biological target: human LAG-3 protein (Lymphocyte activation gene-3) on the cell surface (human) (UniProt P18627); assay: flow cytometry on CD8+ cells of SEB-stimulated PBMCs (Donor 1); antibody 0.4 ng/ml
[19] = biological target: human LAG-3 protein (Lymphocyte activation gene-3) on the cell surface (human) (UniProt P18627); assay: flow cytometry on LAG-3-transfected CHO cells; antibody 1 ng/ml
[20] = biological target: human LAG-3 protein (Lymphocyte activation gene-3) on the cell surface (human) (UniProt P18627); assay: flow cytometry on CD8+ cells of SEB-stimulated PBMCs (Donor 1); antibody 1.6 ng/ml
[21] = biological target: human LAG-3 protein (Lymphocyte activation gene-3) on the cell surface (human) (UniProt P18627); assay: flow cytometry on CD4+ cells of SEB-stimulated PBMCs (Donor 1); antibody 0 ng/ml (no-antibody background)
[22] = biological target: human LAG-3 protein (Lymphocyte activation gene-3) on the cell surface (human) (UniProt P18627); assay: flow cytometry on CD8+ cells of SEB-stimulated PBMCs (Donor 1); antibody 0 ng/ml (no-antibody background)
[23] = biological target: human LAG-3 protein (Lymphocyte activation gene-3) on the cell surface (human) (UniProt P18627); assay: flow cytometry on CD4+ cells of SEB-stimulated PBMCs (Donor 1); antibody 1.6 ng/ml
[24] = biological target: human LAG-3 protein (Lymphocyte activation gene-3) on the cell surface (human) (UniProt P18627); assay: flow cytometry on LAG-3-transfected CHO cells; antibody 2000 ng/ml
[25] = biological target: human LAG-3 protein (Lymphocyte activation gene-3) on the cell surface (human) (UniProt P18627); assay: flow cytometry on CD4+ cells of SEB-stimulated PBMCs (Donor 1), from Table 13
[26] = biological target: human LAG-3 protein (Lymphocyte activation gene-3) on the cell surface (human) (UniProt P18627); assay: flow cytometry on CD4+ cells of SEB-stimulated PBMCs (Donor 1); antibody 541 ng/ml
[27] = biological target: IMP321 (recombinant soluble human LAG-3Ig fusion protein) (human) (UniProt P18627); assay: cell-based or functional assay
[28] = biological target: human LAG-3 protein (Lymphocyte activation gene-3) on the cell surface (human) (UniProt P18627); assay: flow cytometry on CD4+ cells of SEB-stimulated PBMCs (Donor 1); antibody 29 ng/ml

Sequence of human LAG-3 protein (Lymphocyte activation gene-3) on the cell surface (human) (P18627 other isoform, or with tags, fused parts or gaps): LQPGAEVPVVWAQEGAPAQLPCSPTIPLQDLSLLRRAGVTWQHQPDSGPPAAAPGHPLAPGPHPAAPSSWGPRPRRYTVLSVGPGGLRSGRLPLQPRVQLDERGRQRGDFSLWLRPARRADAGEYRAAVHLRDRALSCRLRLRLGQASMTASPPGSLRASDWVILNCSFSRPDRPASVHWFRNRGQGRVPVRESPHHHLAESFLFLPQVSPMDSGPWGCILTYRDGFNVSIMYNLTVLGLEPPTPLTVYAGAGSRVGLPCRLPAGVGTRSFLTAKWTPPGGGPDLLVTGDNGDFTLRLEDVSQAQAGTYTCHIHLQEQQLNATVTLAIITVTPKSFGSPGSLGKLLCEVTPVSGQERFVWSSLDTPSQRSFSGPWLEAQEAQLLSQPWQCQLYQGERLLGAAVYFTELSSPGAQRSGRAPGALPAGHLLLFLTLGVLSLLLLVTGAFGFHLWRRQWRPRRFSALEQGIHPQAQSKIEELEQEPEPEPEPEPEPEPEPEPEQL

## antagonistic anti-LAG-3 mouse monoclonal antibody 17B4
[1]
  MFI: 606 MFI
[2]
  MFI: 4830 MFI
[3]
  MFI of sLAG-3Ig-Alexa 488: 35 MFI
[4]
  MFI: 1380 MFI
[5]
  MFI: 143 MFI
[6]
  EC50: 1 nM
[7]
  MFI: 5140 MFI
[8]
  MFI: 549 MFI
[9]
  MFI: 179 MFI
[10]
  Ka: 2.71e+08 M⁻¹
  Kd: 3.69 nM
  koff: 0.000818 s⁻¹
  kon: 222000 M⁻¹ s⁻¹
[11]
  EC50: 0.7 nM
[12]
  MFI: 1600 MFI
[13]
  MFI: 1400 MFI
[14]
  MFI: 1940 MFI
[15]
  EC50: 0.7 nM
[16]
  EC50: 0.7 nM
[17]
  MFI: 4760 MFI
[18]
  MFI: 195 MFI
[19]
  MFI: 247 MFI
[20]
  MFI: 309 MFI
[21]
  MFI: 106 MFI
[22]
  MFI: 112 MFI
[23]
  MFI: 192 MFI
[24]
  MFI: 5480 MFI
[25]
  EC50: 0.5 nM
[26]
  MFI: 1750 MFI
[27]
  [CCL4] in THP-1 monocytic cells supernatant; IMP321 20 ng/ml pre-incubated with antibody 2 ng/ml: 1960 pg/mL
  [CCL4] in THP-1 monocytic cells supernatant; IMP321 20 ng/ml pre-incubated with antibody 20 ng/ml: 1550 pg/mL
  [CCL4] in THP-1 monocytic cells supernatant; IMP321 20 ng/ml pre-incubated with antibody 200 ng/ml: 860 pg/mL
  [CCL4] in THP-1 monocytic cells supernatant; IMP321 20 ng/ml pre-incubated with antibody 2000 ng/ml: 947 pg/mL
  [CCL4] in THP-1 monocytic cells supernatant; IMP321 20 ng/ml pre-incubated with antibody 20000 ng/ml: 860 pg/mL
  [CCL4] in THP-1 monocytic cells supernatant; IMP321 20 ng/ml, antibody 0 ng/ml (no-antibody value): 2110 pg/mL
[28]
  MFI: 675 MFI
